From patent US20250003951A1 (OXFORD UNIVERSITY INNOVATION, published 2025)

How the values were obtained:
Assay in all cases: cell-based or functional assay
[1] = biological target: T1, OX289-040 (human)
T1 peptide: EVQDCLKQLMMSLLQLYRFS

[2] = biological target: T2, OX289-221 (human)
T2 peptide: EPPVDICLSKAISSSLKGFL

[3] = biological target: T3, OX802-322 (human)
T3 peptide: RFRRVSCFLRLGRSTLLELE

[4] = biological target: T4, OX802-321 (human)
T4 peptide: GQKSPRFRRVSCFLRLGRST

[5] = biological target: T5, OX628-308 (human)
T5 peptide: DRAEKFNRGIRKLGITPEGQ

[6] = biological target: T6, OX628-309 (human)
T6 peptide: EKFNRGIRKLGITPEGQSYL

B1: OX289 Peptide 40 clone 1 TCR (TCR, V domains shown)
V domain 1: NSVTQMEGPVTLSEEAFLTINCTYTATGYPSLFWYVQYPGEGLQLLLKATKADDKGSNKGFEATYRKETTSFHLEKGSVQVSDSAVYFCALIPTGGGNKLTFGTGTQLKVEL
V domain 2: AVVSQHPSWVICKSGTSVKIECRSLDFQATTMFWYRQFPKQSLMLMATSNEGSKATYEQGVEKDKFLINHASLTLSTLTVTSAHPEDSSFYICSARLAHSGTNTGELFFGEGSRLTVLE
Clone size (percent repertoire), IFNγ+ sorted T cells after peptide stimulation [1]: 85.2 % of repertoire

B2: OX289 Peptide 221 clone 1 TCR (TCR, V domains shown)
V domain 1: SLAKTTQPISMDSYEGQEVNITCSHNNIATNDYITWYQQFPSQGPRFIIQGYKTKVTNEVASLFIPADRKSSTLSLPRVSLSDTAVYYCLVVPVYNQGGKLIFGQGTELSVKP
V domain 2: KAGVTQTPRYLIKTRGQQVTLSCSPISGHRSVSWYQQTPGQGLQFLFEYFSETQRNKGNFPGRFSGRQFSNSRSEMNVSTLELGDSALYLCASSSGTSGMGETQYFGPGTRLLVLE
Clone size (percent repertoire), IFNγ+ sorted T cells after peptide stimulation [2]: 65.4 % of repertoire

B3: OX802 Peptides 321/322 clone 1 TCR (TCR)
TCR alpha 1: AGQSLEQPSEVTAVEGAIVQINCTYQTSGFYGLSWYQQHDGGAPTFLSYNALDGLEETGRFSSFLSRSDSYGYLLLQELQMKDSASYFCAVLKKGYALNFGKGTSLLVTPHIQNPDPAVYQLRD
TCR alpha 2: KDQVFQPSTVASSEGAVVEIFCNHSVSNAYNFFWYLHFPGCAPRLLVKGSKPSQQGRYNMTYERFSSSLLILQVREADAAVYYCAVAGGYNKLIFGAGTRLAVHPYIQNPDPAVYQLRD
TCR beta: EAGVVQSPRYKIIEKKQPVAFWCNPISGHNTLYWYLQNLGQGPELLIRYENEEAVDDSQLPKDRFSAERLKGVDSTLKIQPAELGDSAVYLCASSLEAGDSYEQYFGPGTRLTVTEDLKNVFPPEVAVFEPS
Clone size (percent repertoire), IFNγ+ sorted T cells after peptide stimulation [3]: 47.4 % of repertoire | Clone size (percent repertoire), IFNγ+ sorted T cells after peptide stimulation [4]: 47.4 % of repertoire

B4: OX885 Peptides OX628-308/309 clone 2 TCR (TCR, V domains shown)
V domain 1: AQSVTQLDSQVPVFEEAPVELRCNYSSSVSVYLFWYVQYPNQGLQLLLKYLSGSTLVKGINGFEAEFNKSQTSFHLRKPSVHISDTAEYFCAVSGVLTGGGNKLTFGTGTQLKVEL
V domain 2: DAGITQSPRYKITETGRQVTLMCHQTWSHSYMFWYRQDLGHGLRLIYYSAAADITDKGEVPDGYVVSRSKTENFPLTLESATRSQTSVYFCASSEGTVSNQPQHFGDGTRLSILE
Clone size (percent repertoire), IFNγ+ sorted T cells after peptide stimulation [5]: 16.2 % of repertoire | Clone size (percent repertoire), IFNγ+ sorted T cells after peptide stimulation [6]: 16.2 % of repertoire

B5: OX802 Peptides 321/322 clone 2 TCR (TCR, V domains shown)
V domain 1: KDQVFQPSTVASSEGAVVEIFCNHSVSNAYNFFWYLHFPGCAPRLLVKGSKPSQQGRYNMTYERFSSSLLILQVREADAAVYYCAVTGGYNKLIFGAGTRLAVHP
V domain 2: EAGVVQSPRYKIIEKKQPVAFWCNPISGHNTLYWYLQNLGQGPELLIRYENEEAVDDSQLPKDRFSAERLKGVDSTLKIQPAELGDSAVYLCASSLEAGDSYEQYFGPGTRLTVTE
Clone size (percent repertoire), IFNγ+ sorted T cells after peptide stimulation [3]: 20 % of repertoire | Clone size (percent repertoire), IFNγ+ sorted T cells after peptide stimulation [4]: 20 % of repertoire

B6: OX289 Peptide 221 clone 2 TCR (TCR, V domains shown)
V domain 1: GDAKTTQPNSMESNEEEPVHLPCNHSTISGTDYIHWYRQLPSQGPEYVIHGLTSNVNNRMASLAIAEDRKSSTLILHRATLRDAAVYYCILRDVGGSEKLVFGKGTKLTVNP
V domain 2: AVVSQHPSWVICKSGTSVKIECRSLDFQATTMFWYRQFPKQSLMLMATSNEGSKATYEQGVEKDKFLINHASLTLSTLTVTSAHPEDSSFYICSAKGLENQPQHFGDGTRLSILE
Clone size (percent repertoire), IFNγ+ sorted T cells after peptide stimulation [2]: 10.9 % of repertoire

B7: OX885 Peptides OX628-308/309 clone 1 TCR (TCR, V domains shown)
V domain 1: KTTQPPSMDCAEGRAANLPCNHSTISGNEYVYWYRQIHSQGPQYIIHGLKNNETNEMASLIITEDRKSSTLILPHATLRDTAVYYCIVRVAVTNAGKSTFGDGTTLTVKP
V domain 2: EAQVTQNPRYLITVTGKKLTVTCSQNMNHEYMSWYRQDPGLGLRQIYYSMNVEVTDKGDVPEGYKVSRKEKRNFPLILESPSPNQTSLYFCASRYYSADTQYFGPGTRLTVLE
Clone size (percent repertoire), IFNγ+ sorted T cells after peptide stimulation [5]: 76.1 % of repertoire | Clone size (percent repertoire), IFNγ+ sorted T cells after peptide stimulation [6]: 76.1 % of repertoire
